The chains are these.
B1: I283T-N285P-N287T-L289Y-Q290E-S322T-N388M-K394R-C430A-L432F-L434W-S436N-G462P-A463P (protein)
chain: MFLKSLREQINLLKRQGDLRIINRPVDSYLEAAAIIRRSTETKAPVPLMTNIKGYPGCSIVGGLAALSSNPEYPLSRVAMSLGLSTTASAQSIVQYLIDGLKKTPYLPVEIDSNSAPCKQNILRGEDASLAHFPIPQVHQHDGNRYVNTWGVFIVESPDGQWCNWSIQRVQYLNDRQMIALVFPSQHISDIWEEWVKIGKPMPYALVQGCEPIVPYIAGLPLLERNVNEAEYIGALYGKGIEVVKCETHDLRVPASSEVVIEGYFAITREGVEGPFGEFAGYTPPETSYEPILSITAISWQDDPIWPVVAEGKPVDEYHTCTGIGDAAAIQNVLLTANLPVSFVWVPLYSACHLMIVSINRHWRQTHPDLTSEQLTKKVGDVIHQTRMSIKLPRIVVLDDDVDPADTESLLWALATRIHPERKRYFYESAIFPWLNCYSEEERHNRKGKRVIIDALLPENHPPISSFDYAYPDDIKQRVLMHWETDFSHD
B2: I283T-P284D-N287P-S322T-N388M-R422L-C430N-L432F-L434W-S436N-dG462 (protein)
chain: B1 chain with P284D, P285N, T287P, Y289L, E290Q, R394K, R422L, A430N, P462G, P463A
B3: I283T-P284D-N285M-E286D-N287T-S322T-N388M-K394R-C430A-L432F-L434W-S436N-G462P-A463P (protein)
chain: B1 chain with P284D, P285M, E286D, Y289L, E290Q
B4: I283T-P284D-N285M-N287T-L289Q-S322T-N388M-K394R-C430A-L432F-L434W-S436N-G462P-A463P (protein)
chain: B1 chain with P284D, P285M, Y289Q, E290Q
B5: I283T-P284D-N285T-N287T-S322T-N388M-K394R-C430A-L432F-L434W-S436N-G462P-A463P (protein)
chain: B1 chain with P284D, P285T, Y289L, E290Q
B6: I283H-P284D-N285M-N287T-S322T-N388M-K394R-C430A-L432F-L434W-S436N-G462P-A463P (protein)
chain: B1 chain with T283H, P284D, P285M, Y289L, E290Q
B7: I283Q-P284D-N285M-N287T-S322T-N388M-K394R-C430A-L432F-L434W-S436N-G462P-A463P (protein)
chain: B1 chain with T283Q, P284D, P285M, Y289L, E290Q
B8: I283T-P284D-N287P-S322T-N388M-C430N-L432F-L434W-S436N-dG462-A463I (protein)
chain: B1 chain with P284D, P285N, T287P, Y289L, E290Q, R394K, A430N, P462G, P463I
B9: I283L-N285P-N287T-Q290E-S322T-N388M-K394R-C430A-L432F-L434W-S436N (protein)
chain: B1 chain with T283L, Y289L, P462G, P463A
B10: I283T-P284D-N285M-E286G-N287T-S322T-N388M-K394R-C430A-L432F-L434W-S436N-G462P-A463P (protein)
chain: B1 chain with P284D, P285M, E286G, Y289L, E290Q
B11: P25L-I283T-P284D-N287P-S322T-N388M-C430N-L432F-L434W-S436N-dG462 (protein)
chain: B1 chain with P25L, P284D, P285N, T287P, Y289L, E290Q, R394K, A430N, P462G, P463A
B12: N388M-K394R-C430N-L432F-L434W-S436N-H444R (protein)
chain: B1 chain with T283I, P285N, T287N, Y289L, E290Q, T322S, A430N, H444R, P462G, P463A
B13: I283T-P284D-N285M-E286A-N287T-S322T-N388M-K394R-C430A-L432F-L434W-S436N-G462P-A463P (protein)
chain: B1 chain with P284D, P285M, E286A, Y289L, E290Q
B14: I283T-P284D-N285M-N287T-S288T-S322T-N388M-K394R-C430A-L432F-L434W-S436N-G462P-A463P (protein)
chain: B1 chain with P284D, P285M, S288T, Y289L, E290Q
B15: I283T-P284D-N285M-N287T-L289R-S322T-N388M-K394R-C430A-L432F-L434W-S436N-G462P-A463P (protein)
chain: B1 chain with P284D, P285M, Y289R, E290Q
B16: I283T-N285P-N287T-Q290E-S322T-Q365M-N388M-K394R-C430A-L432F-L434W-S436N-G462P-A463P (protein)
chain: B1 chain with Y289L, Q365M
B17: I283T-P284D-N285S-N287T-S322T-N388M-K394R-C430A-L432F-L434W-S436N-G462P-A463P (protein)
chain: B1 chain with P284D, P285S, Y289L, E290Q
B18: I283T-P284D-N287P-S322T-N388M-R422G-C430N-L432F-L434W-S436N-dG462 (protein)
chain: B1 chain with P284D, P285N, T287P, Y289L, E290Q, R394K, R422G, A430N, P462G, P463A
B19: I283T-P284D-N287P-S322T-H384A-N388M-C430N-L432F-L434W-S436N-dG462 (protein)
chain: B1 chain with P284D, P285N, T287P, Y289L, E290Q, H384A, R394K, A430N, P462G, P463A
B20: I283T-P284D-N287P-S322T-N388M-C430N-L432F-L434W-S436N-dG462-A463T (protein)
chain: B1 chain with P284D, P285N, T287P, Y289L, E290Q, R394K, A430N, P462G, P463T
B21: I283T-P284D-N285M-E286H-N287T-S322T-N388M-K394R-C430A-L432F-L434W-S436N-G462P-A463P (protein)
chain: B1 chain with P284D, P285M, E286H, Y289L, E290Q
B22: I283T-P284D-N285H-N287T-S322T-N388M-K394R-C430A-L432F-L434W-S436N-G462P-A463P (protein)
chain: B1 chain with P284D, P285H, Y289L, E290Q
B23: I283T-P284D-N285M-N287T-L289M-S322T-N388M-K394R-C430A-L432F-L434W-S436N-G462P-A463P (protein)
chain: B1 chain with P284D, P285M, Y289M, E290Q
B24: I283T-P284D-N285L-N287T-S322T-N388M-K394R-C430A-L432F-L434W-S436N-G462P-A463P (protein)
chain: B1 chain with P284D, P285L, Y289L, E290Q
B25: I283T-N285P-N287T-L289A-Q290E-S322T-N388M-K394R-C430A-L432F-L434W-S436N-G462P-A463P (protein)
chain: B1 chain with Y289A
B26: N388M-K394R-C430N-L432F-L434W-S436N-H444L (protein)
chain: B1 chain with T283I, P285N, T287N, Y289L, E290Q, T322S, A430N, H444L, P462G, P463A
B27: I283T-N285P-N287T-Q290E-S322T-Q365S-N388M-K394R-C430A-L432F-L434W-S436N-G462P-A463P (protein)
chain: B1 chain with Y289L, Q365S
B28: I283T-P284D-N285M-E286N-N287T-S322T-N388M-K394R-C430A-L432F-L434W-S436N-G462P-A463P (protein)
chain: B1 chain with P284D, P285M, E286N, Y289L, E290Q
B29: I283T-P284D-N285M-N287T-S322T-N388M-K394R-C430T-L432F-L434W-S436N-G462P-A463P (protein)
chain: B1 chain with P284D, P285M, Y289L, E290Q, A430T
B30: N388M-K394R-C430N-L432F-L434W-S436N-H444N (protein)
chain: B1 chain with T283I, P285N, T287N, Y289L, E290Q, T322S, A430N, H444N, P462G, P463A
B31: I283T-P284D-N285V-N287T-S322T-N388M-K394R-C430A-L432F-L434W-S436N-G462P-A463P (protein)
chain: B1 chain with P284D, P285V, Y289L, E290Q
B32: I283T-P284D-N287P-S322T-P368S-N388M-E421V-C430N-L432F-L434W-S436N-dG462 (protein)
chain: MFLKSLREQINLLKRQGDLRIINRPVDSYLEAAAIIRRSTETKAPVPLMTNIKGYPGCSIVGGLAALSSNPEYPLSRVAMSLGLSTTASAQSIVQYLIDGLKKTPYLPVEIDSNSAPCKQNILRGEDASLAHFPIPQVHQHDGNRYVNTWGVFIVESPDGQWCNWSIQRVQYLNDRQMIALVFPSQHISDIWEEWVKIGKPMPYALVQGCEPIVPYIAGLPLLERNVNEAEYIGALYGKGIEVVKCETHDLRVPASSEVVIEGYFAITREGVEGPFGEFAGYTDNEPSLQPILSITAISWQDDPIWPVVAEGKPVDEYHTCTGIGDAAAIQNVLLTANLPVSFVWVPLYSACHLMIVSINRHWRQTHSDLTSEQLTKKVGDVIHQTRMSIKLPKIVVLDDDVDPADTESLLWALATRIHPVRKRYFYESNIFPWLNCYSEEERHNRKGKRVIIDALLPENHGAISSFDYAYPDDIKQRVLMHWETDFSHD

Positions count from the first letter of the chain named. Names and notes keep the numbering of the source.

This assay has as its system 3-methylcrotonic acid. The format is biochemical, Yersinia frederiksenii. Also noted: key: “+” representing a low increase in activity; “++++” representing a high increase in activity.
Take B1: the “Activity relative to WT” value is “++++”.
With B2, the “Activity relative to WT” value is “++++”.
The same measure for B3: “++++”; for B4: “++++”.
The entry for B5 is “++++”; for B6 it is “++++”.
As for B7, the “Activity relative to WT” value was “++++”.
The entry for B8 is “++++”; for B9 it is “++++”.
The entry for B10 is “++++”; for B11 it is “++++”; for B12 it is “+”.
B13: the “Activity relative to WT” value was “++++”.
As to B14, the “Activity relative to WT” value is “++++”.
The entry for B15 is “++++”.
The same measure for B16: “++++”; for B17: “++++”.
The same measure for B18: “++++”; for B19: “++++”.
Regarding B20, the “Activity relative to WT” value is “++++”.
The same measure for B21: “++++”.
B22: the “Activity relative to WT” value is recorded as “++++”.
The entry for B23 is “++++”; for B24 it is “++++”.
The entry for B25 is “++++”.
The entry for B26 is “+”; for B27 it is “++++”.
With B28, the “Activity relative to WT” value is “++++”.
The entry for B29 is “++++”; for B30 it is “+”.
The entry for B31 is “++++”; for B32 it is “++++”.

The values above are taken from patent publication US20250327097A1, “ORGANISMS PRODUCING LESS CROTONIC ACID” (Global Bioenergies, priority 2021, published 2025).
